Data as given in patent publication US20230242624A1 (NEURIMMUNE, published 2023).
“And” between values parts separate entries of the source, which are not always exact repeats. Identical values can stand only once.

B1: NI-607.532_F9 IgG4 S228P (antibody, V domains shown)
VH: EVQLVESGGNLIQPGGSLRLSCAASGFTVSSNYMSWVRQAPGKGLEWVSVIYSGGSTYYADSVKGRFTISRDNSRNTLYLQMNSLRAEDTAVYFCARDRVVRGVRGNGMDVWGQGTTVTVSS
VL: AIRMTQSPSSLSASVGDRVTITCQASQDINIYLNWYQQRPGKAPKLLIYDASNLETGVPSRFSGSGSGTDFTFTISSLQPEDIATYYCHQYDNLPRTFGQGTKVDIK
B2: NI-607.532_C11 IgG4 S228P (antibody, V domains shown)
VH: QVQLVESGGGLIQPGGSLRLSCAASGFTVSSNYMSWVRQAPGKGLEWVSVIYSGGSTYYADSVKGRFTISRDNSKNTLFLQMNSLRAEDTAVYYCARDLQYYGMDVWGQGTTVTVSS
VL: DIQMTQSPSFLSASVGDRVTITCRASQGISSYLAWYQQKPGKAPKLLIYAASTLQSGVPSRFSGSGSGTEFTLTISSLQPEDFATYYCQQLDSYPPRDTFGQGTKVEIK
B3: NI-607.427_C5 IgG4 S228P (antibody, V domains shown)
VH: QVQLVQSGAEVKKPGASVKVSCKASGYTFTSYGISWVRQAPGQGLEWMGWISAYNGNTNYAQKLQGRVTMTTDTSTSTAYMELRSLRSDDTAVYYCARDNRAGWDQLDYWGQGTLVTVSS
VL: not shown
B4: NI-607.531_C8 IgG4 S228P (antibody, V domains shown)
VH: EVQLVESGGGVVQPGRSLRLSCTASGFTFSFYSVHWVRQAPGKGLEWVAVISYDGSTKYYADSVKGRFTISRDNSKNTLYLQMDSLRTEDTAVYYCASPPISPIPAAGTPLAYWGQGTLVTVSS
VL: not shown
B5: NI-607.649_B11 (antibody, V domains shown)
VH: QVQLVQSGAEVKKPGSSVKVSCKASGGTFSNYAISWVRQAPGQGLEWMGGIIPIFGTANYAQKFQGRVTITADESTSTAYMELSSLRSEDTAVYYCAGDRWYYDSSGYPTPDEYFQHWGQGTQVTVSS
VL: QSVLTQPPSVSGAPGQRVTISCTGSSSNIGAGYDVHWYQQLPGTAPKLLIYGNSNRPSGVPDRFSGSKSGTSASLAITGLQAEDEADYYCQSYDSSLSGVVFGGGTKLTVL
B6: NI-607.649_B11 IgG4 S228P (antibody, V domains shown)
VH: B5 VH
VL: B5 VL

Columns and labels:
[1] = molecular target: T1, SARS-CoV-2-S1 (RBD)-His protein (Trenzyme) (SARS-CoV-2, UniProt P0DTC2 319-541); assay: competition ELISA, RBD binding to coated ACE2
[2] = molecular target: T1, SARS-CoV-2-S1 (RBD)-His protein …; assay: direct ELISA on coated RBD-His
[3] = molecular target: T1, SARS-CoV-2-S1 (RBD)-His protein …
[4] = molecular target: 2019-nCov Spike protein (S1 mFC tag) (SARS-CoV-2, UniProt P0DTC2 16-685)
[5] = molecular target: T1, SARS-CoV-2-S1 (RBD)-His protein …; assay: direct ELISA on coated RBD-His (FIG. 1D)

Row | Binder | IC50 [1] | IC50 (read off the curve) [3] [mg/L] | other results
1 | B1 | ~1.09 µg/mL and ~7.3 nM | – | –
2 | B2 | ~2.32 µg/mL and ~15.4 nM | – | –
3 | B3 | ~2.79 µg/mL and ~18.6 nM | – | –
4 | B4 | ~0.191 mg/L | ~0.03 | EC50 [2]: ~8.5 pM
5 | B5 | – | – | EC50 (read off the curve) [4]: ~500 pM
6 | B6 | ~0.047 mg/L | ~0.05 | EC50 [5]: ~8.5 pM
